Test results from publication PMC10627512.

Biological target: HipB of the E. coli O127:H6 HipBST toxin-antitoxin system (E. coli O127:H6) (UniProt P23873)
Assay: crystal structure

HipB of the E. coli O127:H6 HipBST toxin-antitoxin system (from UniProt P23873 1-88) (natural protein)
stoichiometry N: 2
